Reference: IntAct's records for PubMed 25416956

B1: Fructose-1,6-bisphosphatase 1 (Homo sapiens), P09467 (parent)
chain: MADQAPFDTDVNTLTRFVMEEGRKARGTGELTQLLNSLCTAVKAISSAVRKAGIAHLYGIAGSTNVTGDQVKKLDVLSNDLVMNMLKSSFATCVLVSEEDKHAIIVEPEKRGKYVVCFDPLDGSSNIDCLVSVGTIFGIYRKKSTDEPSEKDALQPGRNLVAAGYALYGSATMLVLAMDCGVNCFMLDPAIGEFILVDKDVKIKKKGKIYSLNEGYARDFDPAVTEYIQRKKFPPDNSAPYGARYVGSMVADVHRTLVYGGIFLYPANKKSPNGKLRLLYECNPMAYVMEKAGGMATTGKEAVLDVIPTDIHQRAPVILGSPDDVLEFLKVYEKHSAQ
partner: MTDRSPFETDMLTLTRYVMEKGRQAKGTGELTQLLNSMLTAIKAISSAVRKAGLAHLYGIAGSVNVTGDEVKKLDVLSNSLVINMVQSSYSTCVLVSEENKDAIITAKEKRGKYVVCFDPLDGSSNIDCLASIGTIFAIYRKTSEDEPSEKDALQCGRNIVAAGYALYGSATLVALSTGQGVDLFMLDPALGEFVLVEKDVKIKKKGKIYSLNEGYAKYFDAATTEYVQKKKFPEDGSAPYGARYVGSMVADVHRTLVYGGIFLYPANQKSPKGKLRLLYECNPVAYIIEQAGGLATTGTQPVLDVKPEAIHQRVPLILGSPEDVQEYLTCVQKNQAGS
B2: Keratin, type II cytoskeletal 6A (Homo sapiens), P02538 (parent)
chain: MASTSTTIRSHSSSRRGFSANSARLPGVSRSGFSSVSVSRSRGSGGLGGACGGAGFGSRSLYGLGGSKRISIGGGSCAISGGYGSRAGGSYGFGGAGSGFGFGGGAGIGFGLGGGAGLAGGFGGPGFPVCPPGGIQEVTVNQSLLTPLNLQIDPTIQRVRAEEREQIKTLNNKFASFIDKVRFLEQQNKVLETKWTLLQEQGTKTVRQNLEPLFEQYINNLRRQLDSIVGERGRLDSELRGMQDLVEDFKNKYEDEINKRTAAENEFVTLKKDVDAAYMNKVELQAKADTLTDEINFLRALYDAELSQMQTHISDTSVVLSMDNNRNLDLDSIIAEVKAQYEEIAQRSRAEAESWYQTKYEELQVTAGRHGDDLRNTKQEIAEINRMIQRLRSEIDHVKKQCANLQAAIADAEQRGEMALKDAKNKLEGLEDALQKAKQDLARLLKEYQELMNVKLALDVEIATYRKLLEGEECRLNGEGVGQVNISVVQSTVSSGYGGASGVGSGLGLGGGSSYSYGSGLGVGGGFSSSSGRAIGGGLSSVGGGSSTIKYTTTSSSSRKSYKH
partner: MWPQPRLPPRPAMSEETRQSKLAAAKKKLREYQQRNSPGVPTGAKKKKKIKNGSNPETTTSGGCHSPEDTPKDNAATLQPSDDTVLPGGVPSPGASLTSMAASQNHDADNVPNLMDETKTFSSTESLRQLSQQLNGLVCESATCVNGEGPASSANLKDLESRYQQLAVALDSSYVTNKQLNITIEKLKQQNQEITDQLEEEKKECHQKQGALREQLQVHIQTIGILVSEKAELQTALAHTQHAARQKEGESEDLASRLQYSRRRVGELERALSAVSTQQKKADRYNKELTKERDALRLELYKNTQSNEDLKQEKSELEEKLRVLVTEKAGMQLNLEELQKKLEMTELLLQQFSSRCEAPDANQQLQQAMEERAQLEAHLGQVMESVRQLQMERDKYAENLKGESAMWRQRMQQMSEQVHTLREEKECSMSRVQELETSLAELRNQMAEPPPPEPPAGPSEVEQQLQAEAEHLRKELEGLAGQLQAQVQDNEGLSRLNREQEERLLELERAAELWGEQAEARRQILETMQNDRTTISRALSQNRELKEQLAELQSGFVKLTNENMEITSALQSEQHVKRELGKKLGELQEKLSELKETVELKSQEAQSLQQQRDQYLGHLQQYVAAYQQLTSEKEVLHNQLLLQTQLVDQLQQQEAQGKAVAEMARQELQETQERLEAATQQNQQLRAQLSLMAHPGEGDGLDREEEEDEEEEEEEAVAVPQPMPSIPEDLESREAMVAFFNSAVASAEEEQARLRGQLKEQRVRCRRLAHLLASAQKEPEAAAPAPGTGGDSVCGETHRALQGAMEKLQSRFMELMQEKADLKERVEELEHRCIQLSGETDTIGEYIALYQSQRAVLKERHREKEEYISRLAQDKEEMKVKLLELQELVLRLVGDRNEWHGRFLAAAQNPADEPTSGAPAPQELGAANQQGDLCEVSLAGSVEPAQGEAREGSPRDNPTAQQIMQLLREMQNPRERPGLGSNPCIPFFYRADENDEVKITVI
B3: DNA ligase 4 (Homo sapiens), P49917 (parent)
chain: MAASQTSQTVASHVPFADLCSTLERIQKSKGRAEKIRHFREFLDSWRKFHDALHKNHKDVTDSFYPAMRLILPQLERERMAYGIKETMLAKLYIELLNLPRDGKDALKLLNYRTPTGTHGDAGDFAMIAYFVLKPRCLQKGSLTIQQVNDLLDSIASNNSAKRKDLIKKSLLQLITQSSALEQKWLIRMIIKDLKLGVSQQTIFSVFHNDAAELHNVTTDLEKVCRQLHDPSVGLSDISITLFSAFKPMLAAIADIEHIEKDMKHQSFYIETKLDGERMQMHKDGDVYKYFSRNGYNYTDQFGASPTEGSLTPFIHNAFKADIQICILDGEMMAYNPNTQTFMQKGTKFDIKRMVEDSDLQTCYCVFDVLMVNNKKLGHETLRKRYEILSSIFTPIPGRIEIVQKTQAHTKNEVIDALNEAIDKREEGIMVKQPLSIYKPDKRGEGWLKIKPEYVSGLMDELDILIVGGYWGKGSRGGMMSHFLCAVAEKPPPGEKPSVFHTLSRVGSGCTMKELYDLGLKLAKYWKPFHRKAPPSSILCGTEKPEVYIEPCNSVIVQIKAAEIVPSDMYKTGCTLRFPRIEKIRDDKEWHECMTLDDLEQLRGKASGKLASKHLYIGGDDEPQEKKRKAAPKMKKVIGIIEHLKAPNLTNVNKISNIFEDVEFCVMSGTDSQPKPDLENRIAEFGGYIVQNPGPDTYCVIAGSENIRVKNIILSNKHDVVKPAWLLECFKTKSFVPWQPRFMIHMCPSTKEHFAREYDCYGDSYFIDTDLNQLKEVFSGIKNSNEQTPEEMASLIADLEYRYSWDCSPLSMFRRHTVYLDSYAVINDLSTKNEGTRLAIKALELRFHGAKVVSCLAEGVSHVIIGEDHSRVADFKAFRRTFKRKFKILKESWVTDSIDKCELQEENQYLI
B4: EF-hand domain-containing protein 1 (Homo sapiens), Q5JVL4 (parent)
chain: MVSNPVHGLPFLPGTSFKDSTKTAFHRSQTLSYRNGYAIVRRPTVGIGGDRLQFNQLSQAELDELASKAPVLTYGQPKQAPPADFIPAHVAFDKKVLKFDAYFQEDVPMSTEEQYRIRQVNIYYYLEDDSMSVIEPVVENSGILQGKLIKRQRLAKNDRGDHYHWKDLNRGINITIYGKTFRVVDCDQFTQVFLESQGIELNPPEKMALDPYTELRKQPLRKYVTPSDFDQLKQFLTFDKQVLRFYAIWDDTDSMYGECRTYIIHYYLMDDTVEIREVHERNDGRDPFPLLMNRQRVPKVLVENAKNFPQCVLEISDQEVLEWYTAKDFIVGKSLTILGRTFFIYDCDPFTRRYYKEKFGITDLPRIDVSKREPPPVKQELPPYNGFGLVEDSAQNCFALIPKAPKKDVIKMLVNDNKVLRYLAVLESPIPEDKDRRFVFSYFLATDMISIFEPPVRNSGIIGGKYLGRTKVVKPYSTVDNPVYYGPSDFFIGAVIEVFGHRFIILDTDEYVLKYMESNAAQYSPEALASIQNHVRKREAPAPEAESKQTEKDPGVQELEALIDTIQKQLKDHSCKDNIREAFQIYDKEASGYVDRDMFFKICESLNVPVDDSLVKELIRMCSHGEGKINYYNFVRAFSN
partner: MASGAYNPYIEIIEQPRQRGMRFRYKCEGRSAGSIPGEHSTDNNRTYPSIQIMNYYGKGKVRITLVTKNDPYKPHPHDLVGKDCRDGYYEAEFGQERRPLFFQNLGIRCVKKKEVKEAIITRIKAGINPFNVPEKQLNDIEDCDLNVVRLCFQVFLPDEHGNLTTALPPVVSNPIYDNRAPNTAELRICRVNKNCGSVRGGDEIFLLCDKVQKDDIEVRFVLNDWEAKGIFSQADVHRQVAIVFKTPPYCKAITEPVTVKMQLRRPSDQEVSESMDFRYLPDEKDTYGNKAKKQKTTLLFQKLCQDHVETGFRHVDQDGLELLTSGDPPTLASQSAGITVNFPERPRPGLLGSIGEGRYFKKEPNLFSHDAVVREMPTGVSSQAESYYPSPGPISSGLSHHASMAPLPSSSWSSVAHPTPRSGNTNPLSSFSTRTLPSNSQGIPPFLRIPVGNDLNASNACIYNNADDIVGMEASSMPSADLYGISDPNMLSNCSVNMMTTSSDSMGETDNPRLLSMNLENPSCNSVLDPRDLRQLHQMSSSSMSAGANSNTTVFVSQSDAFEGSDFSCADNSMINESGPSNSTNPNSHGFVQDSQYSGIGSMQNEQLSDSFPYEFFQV
B5: EF-hand domain-containing protein 1 (Homo sapiens), Q5JVL4 (parent)
chain: B4 chain

Variants of: B1
Conditions: with FBP2, O00757

Row | Variant | effect of a mutation on the interaction
1 | F194S | disrupting interaction

Variants of: B1
Conditions: with FBP2, O00757
Remark: another data set of the same source

Row | Variant | effect of a mutation on the interaction
2 | G260R | disrupting interaction

Variants of: B2
Conditions: with goga2_human GOLGA2, Q08379

Row | Variant | effect of a mutation on the interaction
3 | N171K | disrupting interaction

Variants of: B3
Conditions: with xrcc4_human XRCC4, Q13426
xrcc4_human XRCC4, Q13426, sequence (Q13426 whole entry): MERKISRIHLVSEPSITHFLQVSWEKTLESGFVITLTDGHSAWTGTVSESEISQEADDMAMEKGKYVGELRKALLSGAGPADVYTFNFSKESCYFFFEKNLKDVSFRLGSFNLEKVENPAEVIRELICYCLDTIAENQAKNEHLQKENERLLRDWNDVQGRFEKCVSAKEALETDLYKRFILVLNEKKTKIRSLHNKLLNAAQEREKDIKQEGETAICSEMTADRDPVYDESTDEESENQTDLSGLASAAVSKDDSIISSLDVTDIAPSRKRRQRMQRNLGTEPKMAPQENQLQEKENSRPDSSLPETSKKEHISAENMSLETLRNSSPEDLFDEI

Row | Variant | effect of a mutation on the interaction
4 | A3V | disrupting interaction

Variants of: B4
Conditions: with rel_human REL

Row | Variant | effect of a mutation on the interaction
5 | T508R | disrupting interaction

Variants of: B4
Conditions: with rel_human REL
Remark: another data set of the same source

Row | Variant | effect of a mutation on the interaction
6 | R221H | disrupting interaction

Variants of: B4
Conditions: with rel_human REL
Remark: another data set of the same source

Row | Variant | effect of a mutation on the interaction
7 | P77T | disrupting interaction

Variants of: B4
Conditions: with rel_human REL
Remark: another data set of the same source

Row | Variant | effect of a mutation on the interaction
8 | A394S | disrupting interaction

Variants of: B5
Conditions: with itf2_human TCF4, P15884
itf2_human TCF4, P15884, sequence (P15884 whole entry): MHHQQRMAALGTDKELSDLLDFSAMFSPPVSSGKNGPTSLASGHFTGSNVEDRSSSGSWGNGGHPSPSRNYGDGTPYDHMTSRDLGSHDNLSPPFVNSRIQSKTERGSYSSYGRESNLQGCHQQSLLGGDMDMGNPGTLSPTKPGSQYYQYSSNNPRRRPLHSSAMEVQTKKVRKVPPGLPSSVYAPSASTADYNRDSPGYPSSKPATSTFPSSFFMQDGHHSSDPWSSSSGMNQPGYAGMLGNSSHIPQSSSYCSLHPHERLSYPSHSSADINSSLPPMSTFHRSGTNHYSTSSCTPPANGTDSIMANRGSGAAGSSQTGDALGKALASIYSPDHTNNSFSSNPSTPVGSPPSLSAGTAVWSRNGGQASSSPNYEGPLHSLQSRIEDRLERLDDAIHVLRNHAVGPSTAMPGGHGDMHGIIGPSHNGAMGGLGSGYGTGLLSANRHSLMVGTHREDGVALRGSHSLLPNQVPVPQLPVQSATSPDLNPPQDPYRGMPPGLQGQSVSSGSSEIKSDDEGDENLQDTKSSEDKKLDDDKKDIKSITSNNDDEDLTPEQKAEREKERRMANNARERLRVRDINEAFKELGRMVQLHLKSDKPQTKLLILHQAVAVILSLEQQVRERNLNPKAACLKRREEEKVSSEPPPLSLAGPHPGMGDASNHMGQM

Row | Variant | effect of a mutation on the interaction
9 | T508R | disrupting interaction
